For one substance, stoichiometry N results are on record in paper PMC5774828.

This experiment addresses DS protein (Dengue-HBsAg fusion: EDIII of DENV-1, -3, -4 and -2 joined in tandem to the HBV S antigen) (dengue virus 1 (West Pac-74) | dengue virus 3 (H87/56) | dengue virus 4 (H241-P) | dengue virus 2 (PR159-S1/69) | hepatitis B virus (adw serotype)). Kind of experiment: densitometry of a Western blot of the purified VLPs; Western blot of purified DSV4 developed with anti-S mAb 5S; ratio from the peak areas of DS, S and S dimer (ImageJ). Background: In western blotting, separated proteins are transferred to a membrane and probed.

On to “Hepatitis B virus surface (S) antigen, unfused (natural protein)”, for which the stoichiometry N turned out to be 4 S per DS.

In general, stoichiometry N refers to the number of molecules, sites or subunits per partner or assembly.
